Values belong to the substance of their own block, whether it stands above or below them.
Tests used:
H3.3/H4 (Homo sapiens) = H3.3/H4 (Homo sapiens) (UniProt P84243); conditions: cited from earlier work
[1] = biological target: HIRA-WB/UBN1-NM complex (human) (UniProt P54198); test: AUC; sedimentation velocity of the HIRA-WB/UBN1-NM/H3.3/H4 SEC peak at three loading concentrations, 4 °C, 20 mM HEPES pH 6.95, 500 mM NaCl, 0.5 mM TCEP; global fit in Sedphat to monomer-dimer self-association: 2:2:2:2 assembly to 1:1:1:1 assemblies
[2] = biological target: H3.3/H4 heterodimer (human | X. laevis) (UniProt P84243); test: AUC; sedimentation equilibrium of H3.3/H4 alone, 4 °C, three loading concentrations, 15,000, 25,000 and 30,000 rpm, 20 mM HEPES pH 7.5, 100 mM NaCl, 100 mM KCl, 2 mM MgCl2, 1 mM EDTA, 0.05% Brij-35; monomer-dimer model: (H3.3/H4)2 tetramer to H3.3/H4 heterodimers
[3] = biological target: ASF1a-C labelled with fluorescein-5-maleimide (human) (UniProt Q9Y294); test: fluorescence polarisation; direct binding: protein titrated into 10 nM fluorescently labelled ASF1a-C probe; 20 mM HEPES pH 7.5, 150 mM NaCl, 0.5 mM TCEP, 0.001% Tween-20, 1 mg/ml BSA; one-site total binding model
[4] = biological target: HIRA-WB/UBN1-NM/H3.3/H4 complex (human | X. laevis) (UniProt P54198); test: AUC; sedimentation velocity of the HIRA-WB/UBN1-NM/H3.3/H4 SEC peak at three loading concentrations, 4 °C, 20 mM HEPES pH 6.95, 500 mM NaCl, 0.5 mM TCEP; global fit in Sedphat to monomer-dimer self-association: 2:2:2:2 assembly to 1:1:1:1 assemblies
[5] = biological target: ASF1a-C labelled with Alexa Fluor 488 (human) (UniProt Q9Y294); test: fluorescence polarisation; direct binding: protein titrated into 10 nM fluorescently labelled ASF1a-C probe; 20 mM HEPES pH 7.5, 150 mM NaCl, 0.5 mM TCEP, 0.001% Tween-20, 1 mg/ml BSA; one-site total binding model
[6] = biological target: H3.3/H4 (Homo sapiens (H3.3); Xenopus laevis (H4)) (UniProt P84243+P62799); test: competition; conditions: 20 mM HEPES pH 7.5, 150 mM NaCl, 0.5 mM TCEP, 0.001% Tween-20, 1 mg/ml BSA; 10 nM probe; temperature not stated
H3/H4 (Homo sapiens) = H3/H4 (Homo sapiens) (UniProt P84243); conditions: cited from earlier work

Sequence of ASF1a-C labelled with fluorescein-5-maleimide (human) (Q9Y294 1-156): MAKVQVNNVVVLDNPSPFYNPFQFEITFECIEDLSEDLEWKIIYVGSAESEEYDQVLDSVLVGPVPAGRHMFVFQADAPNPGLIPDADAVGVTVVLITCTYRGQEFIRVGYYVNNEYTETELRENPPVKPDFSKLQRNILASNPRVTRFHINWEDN
Sequence of ASF1a-C labelled with Alexa Fluor 488 (human) (Q9Y294 1-156): as above
Sequence of ASF1a (Q9Y294 whole entry): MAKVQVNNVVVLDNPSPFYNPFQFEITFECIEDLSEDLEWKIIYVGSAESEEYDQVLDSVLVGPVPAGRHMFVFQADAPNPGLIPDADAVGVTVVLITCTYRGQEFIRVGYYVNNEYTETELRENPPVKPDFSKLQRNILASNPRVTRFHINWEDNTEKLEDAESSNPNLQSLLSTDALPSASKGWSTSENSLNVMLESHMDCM

Substance: UBN1 (from UniProt Q9NPG3)
Kd (H3.3/H4 (Homo sapiens)): 7 µM

stoichiometry N [1]: 1 | Kd [2]: 6 µM | stoichiometry N [2]: 2
Substance: H3.3/H4 heterodimer (from UniProt P84243 1-136; P62799 1-103) (complex)

Kd [3]: 280 nM
Substance: H3.3/H4 heterodimer (from UniProt P84243 1-136; P62799 1-103) (complex; other documents disagree on this pair)

Kd [4]: 6 µM | stoichiometry N [4]: 2
Substance: HIRA-WB/UBN1-NM/H3.3/H4 complex (from UniProt P54198 1-473; Q9NPG3 1-584; P84243 1-136; P62799 1-103)

Kd [5]: 1000 nM
Substance: HIRA-WB/UBN1-NM/H3.3/H4 complex (from UniProt P54198 1-473; Q9NPG3 1-584; P84243 1-136; P62799 1-103) (complex; other documents disagree on this pair)

Substance: 60 bp dsDNA competitor
Ki [6]: 280 nM

Substance: ASF1a (from UniProt Q9Y294)
Kd (H3/H4 (Homo sapiens)): 2.5 nM

Source: paper PMC11388340
